Source: the Immune Epitope Database (IEDB)

What was measured:
[1] = target: HLA-B*18:01; experiment: IEDB peptide-MHC binding, purified MHC/competitive/fluorescence; filed as Kd, often an IC50 or EC50 that approximates it; ≥ and ≤ were set here for values at or beyond the usual limits of such assays; settings: source organism: Streptococcus pneumoniae TIGR4
[2] = target: HLA-A*26:01; experiment: as above; settings: source organism: Streptococcus pneumoniae TIGR4
[3] = target: HLA-A*68:02; experiment: as above; settings: source organism: Streptococcus pneumoniae TIGR4
[4] = target: HLA-A*29:02; experiment: as above; settings: source organism: Streptococcus pneumoniae TIGR4
[5] = target: HLA-B*27:03; experiment: as above; settings: source organism: Streptococcus pneumoniae TIGR4
[6] = target: HLA-B*51:01; experiment: as above; settings: source organism: Streptococcus pneumoniae TIGR4
[7] = target: HLA-A*69:01; experiment: as above; settings: source organism: Streptococcus pneumoniae TIGR4
[8] = target: HLA-A*03:01; experiment: as above; settings: source organism: Streptococcus pneumoniae TIGR4
[9] = target: HLA-B*46:01; experiment: as above; settings: source organism: Streptococcus pneumoniae TIGR4
[10] = target: HLA-B*57:01; experiment: as above; settings: source organism: Streptococcus pneumoniae TIGR4
[11] = target: HLA-A*23:01; experiment: as above; settings: source organism: Streptococcus pneumoniae TIGR4
[12] = target: HLA-A*02:01; experiment: as above; settings: source organism: Streptococcus pneumoniae TIGR4
[13] = target: HLA-A*24:03; experiment: as above; settings: source organism: Streptococcus pneumoniae TIGR4
[14] = target: HLA-B*15:17; experiment: as above; settings: source organism: Streptococcus pneumoniae TIGR4
[15] = target: HLA-B*27:05; experiment: IEDB peptide-MHC binding, purified MHC/direct/fluorescence; filed as Kd, often an IC50 or EC50 that approximates it; ≥ and ≤ were set here for values at or beyond the usual limits of such assays
[16] = target: HLA-A*26:01; experiment: as above
[17] = target: HLA-A*30:01; experiment: as above
[18] = target: HLA-B*08:01; experiment: as above
[19] = target: HLA-A*11:01; experiment: as above
[20] = target: HLA-A*69:01; experiment: as above
[21] = target: HLA-B*15:01; experiment: as above
[22] = target: HLA-A*03:01; experiment: as above
[23] = target: HLA-A*01:01; experiment: as above
[24] = target: HLA-B*35:01; experiment: as above
[25] = target: HLA-B*58:01; experiment: as above
[26] = target: HLA-A*02:01; experiment: as above
[27] = target: HLA-B*40:01; experiment: as above
[28] = target: HLA-A*24:03; experiment: as above
[29] = target: HLA-B*44:02; experiment: as above
[30] = target: HLA-A*31:01; experiment: as above
[31] = target: HLA-B*07:02; experiment: as above; settings: source organism: Vibrio vulnificus
[32] = source organism: Giardia lamblia ATCC 50803
[33] = source organism: Vibrio vulnificus
[34] = source organism: Cryptosporidium parvum

YQVEGATRV was tested, and the Kd [1] was at least 20 µM, the Kd [2] was at least 20 µM and the Kd [3] was at least 20 µM. For the same sequence, the Kd [4] was at least 20 µM, the Kd [5] was at least 20 µM and the Kd [6] was at least 20 µM. The Kd [7] was at least 20 µM, the Kd [8] was at least 20 µM and the Kd [9] was at least 20 µM. It also gave a Kd [10] of at least 20 µM, a Kd [11] of at least 20 µM and a Kd [12] of 0.0017 µM. It also gave a Kd [13] of at least 20 µM and a Kd [14] of at least 20 µM.

SYPPPPASF showed a Kd [15, 32] of at least 20 µM, a Kd [16, 32] of at least 20 µM and a Kd [17, 32] of at least 44.4 µM. For the same sequence, the Kd [18, 32] was at least 20 µM, the Kd [19, 32] was at least 20 µM and the Kd [20, 32] was at least 20 µM. The Kd [21, 32] was at least 10 µM, the Kd [22, 32] was at least 20 µM and the Kd [23, 32] was at least 20 µM. For the same sequence, the Kd [24, 32] was 1.59 µM, the Kd [25, 32] was at least 20 µM and the Kd [26, 32] was at least 20 µM. For the same sequence, the Kd [27, 32] was at least 20 µM, the Kd [28, 32] was 0.00084 µM and the Kd [29, 32] was at least 20 µM.

QKDINTPGY gave a Kd [15, 33] of at least 20 µM, a Kd [16, 33] of at least 20 µM and a Kd [17, 33] of 9.37 µM. For the same sequence, the Kd [18, 33] was at least 20 µM, the Kd [19, 33] was at least 20 µM and the Kd [30, 33] was at least 20 µM. For the same sequence, the Kd [20, 33] was at least 20 µM, the Kd [31] was at least 20 µM and the Kd [22, 33] was at least 20 µM. The Kd [23, 33] was at least 20 µM, the Kd [25, 33] was at least 20 µM and the Kd [26, 33] was 15.5 µM. It also gave a Kd [27, 33] of at least 20 µM and a Kd [29, 33] of at least 20 µM.

In the case of VPPTNSINK, the Kd [15, 34] is reported as at least 20 µM, the Kd [16, 34] is reported as at least 20 µM and the Kd [18, 34] is reported as at least 20 µM. The Kd [19, 34] was at least 20 µM, the Kd [30, 34] was at least 20 µM and the Kd [20, 34] was at least 20 µM. For the same sequence, the Kd [21, 34] was at least 10 µM, the Kd [22, 34] was at least 20 µM and the Kd [23, 34] was at least 20 µM. The Kd [24, 34] was 15 µM, the Kd [25, 34] was at least 20 µM and the Kd [26, 34] was at least 20 µM. The Kd [27, 34] was at least 20 µM, the Kd [28, 34] was at least 20 µM and the Kd [29, 34] was at least 20 µM.
